The results in this text go back to PMC4663627.

This data set concerns the target T1, p19 (GST-p19) (Cymbidium ringspot virus (CymRSV)) (UniProt P17457).
T1 sequence: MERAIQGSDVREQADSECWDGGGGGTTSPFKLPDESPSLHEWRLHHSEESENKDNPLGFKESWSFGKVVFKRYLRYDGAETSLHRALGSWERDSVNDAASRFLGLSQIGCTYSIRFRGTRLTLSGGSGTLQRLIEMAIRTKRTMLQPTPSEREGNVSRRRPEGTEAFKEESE
In words: SiNW-FET conductance, Langmuir fit. The following applies: phosphate solution (240 uM NaH2PO4, 760 uM Na2HPO4), pH 7.4, Debye length 6.1 nm, temperature not given.

For “CGUACGCGGAAUACUUCGAUU / UCGAAGUAUUCCGCGUACGUU [ds-sRNA-0]”, for the setting “5'-phosphate”, the Kd amounted to 16 nM.
In turn, “GCGACGCGGAAUACUUCGAUU / UCGAAGUAUUCCGCGUACGUU [ds-sRNA-2]” had a Kd of 227 nM.
Take “GCGACGCGGAAUACUUGCUUU / UCGAAGUAUUCCGCGUACGUU [ds-sRNA-3]”: the Kd was 1140 nM.
